Experimental data from the nanobody polyreactivity screen of Harvey et al. (2022).

test: yeast display, Sf9 membrane polyspecificity reagent, FACS + sequencing; frameworks hold sequencing errors
Procedure, shortened: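 Nanobodies from a synthetic yeast display library (Saccharomyces cerevisiae BJ5465), induced 36–48 hours with galactose, were stained 1 hour at 4 °C with 10% biotinylated, detergent-solubilized Sf9 membrane reagent, enriched on streptavidin microbeads, then FACS-sorted. Anti-HA (expression) and streptavidin (reagent binding) fluorescence set low and high (top ~1%) gates. Polyreactivity labels come from the gate of origin. Genes were colony-PCR amplified, MiSeq 2 × 250 sequenced and filtered by CDR length.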

Row | Sequence | polyreactivity (PSR sort gate)
1 | QVQLVETGGGLVQAGGSLRLSCAASGSTFESNAMGWYRQAPGKERELVAAISRGGNTYYADSEKGRFTISRDNAKNTVYLQMNSLKPEDTAVYYCNVDRGNPVPPSEYWGQGTQVTVSS | low polyreactivity
2 | QVQLVETGGGLVQAGGSLRLSCAASGSTFPAYTMGWYRQAPGKERELVAAITTGGRTYYADSVKGRFTISRDNAKNTVYLQMNSLKPEDTAVYYCAAKRYCYRSLPYYGIHGWGQGTQVTVSS | high polyreactivity
3 | QVQLVETGGGLVQAGGSLRLSCAASGSTFSDYVMGWYRQAPGKERELVAAITWSGGSTYYADSVKGRFTISRDNAKNTVYLQMNSLKPEDTAVYYCAADPTASGHFLGQVDYWGQGTQVTVSS | high polyreactivity
4 | QVQLVETGGGLVQAGGSLRLSCAASGSTFWYYGMGWYRQAPGKERELVAAISRRGGSTYYADSVKGRFTFSRDNAKNTVYLQMNSLKPEDTAVYYCAADRLIGDGENYYWGQGTQVTVSS | high polyreactivity
5 | QVQLVETGGGLVQAGGSLRLSCAASRSIFARNAMGWYRQAPGKERELVAAISWSGGRTYYADSVKGRFPISRVNAKNTVYLQMNSLKPEDTAVYYCATYTWWGQGTQVTVSS | high polyreactivity
6 | QVQLVETGGGLVQAGGSLRLSCADYGYILWNAMGWYRQAPGTEMELVPAIRFRGGSTSYADSVKGRFTISRDNAQNTVYLQMKSLKPVYTAVYYCNARWWVIRPYERHDYWGQGTQVTVTS | low polyreactivity
7 | QVQLVETGGGLVQAGGSLRLSCAPSGRTFGPYAMGWYRQAPGKERELVAAIRVRGASTYYADSVKVRFTISRDNEKNTVYLQMNSLKPEDTEVYYCAATLSYYVGVRYDYWGQGTQVTVSS | high polyreactivity
8 | QVQLVETGGGLVQAGGSLRLSCAPSGRTLSYYAMGWYIQAPGKERELVAAIRHSAGSTYYADSVKVRFTISRDNAKNTVYLQMISLKPEDTAVYYCAKKYYGHRYPSIYDYWGQGTQVTVSS | high polyreactivity
9 | QVQLVETGGGLVQAGGSLRLSSGASGFIFVRNAMGWYRQAPGKEREFVAAINSSGGRTYYADSVKGRFTISRDNANNTVNLQMNSLKPEDTAVYYCAARPQPKKFYYWGQGTQETVSS | high polyreactivity
10 | QVQLVETGGGLVQAGGSLSLSCAASGRTSKINAMGWYRQAPGKERELVASISRTGGTTYYADSVKGRFTISRDNAKNTVYLQMNSVKPEDTAVYYCAVSDFGLRDSLTIYDEYDYWGQGTQVTVSS | high polyreactivity
11 | QVQLVETGGGLVQAGGSLSLSCAASGSILDLNAMGWYRQAPGKERELVAAISSGGGTYYADSVKGRFTISRDNAKNTVYLQMNSLKPEDTAVYYCNRVTRWTYNYWGQGTQVTVSS | high polyreactivity
12 | QVQLVETGGGLVQAGGSLSLSCAGSGHTFTNNAMGWYRQAPGKERELVAAITFSGGRTYYADSVKGRFTISRDNAKNTVYLQKNSLKPEDTAVYYCDAVNPGGSIYDYWGQGTQVTVSS | low polyreactivity
13 | QVQLVETGGRLVQAGGSLRLSSAASGSIFYPYAMGWYRQAPGKEREWVATITISGGRTYYADSVKGRFTISRDNAKNTVYLQMNSLKPEDTAFYYCATEYAYGAFLYDYWGQGTQVTVSW | low polyreactivity
14 | QVQLVETGGVLDQAGGSLRLSCAASGRIFWANAMGWYRQAPGKERELVAAISYSGVSTYYADSVKGRFTSSRDNAKNTVYLQMNSLKPEDTAVYYCAADRYRKYYYWGQGTQVTVSS | high polyreactivity
15 | QVQLVETGRGLVQAGGSLRLSCAASGSTFWPNAMGWYRQAPGKDRELVAAITSGGGTKYADSVKGRFTISRDNAKNTVYLQMNSLKPEDTAVYYCAKRKGDRGAWNHAYGWEDVDYWGQGTQVTVSS | low polyreactivity
16 | QVQLVETGRGLVQEGGSLRLICAASGRTFYIYAMGWYRQAPGKERDLVAAISWGSGSPYYADSVKGRFTISRDNAKNTVYLQINSLKPEDTAVYYFAAEYAFPSEWTYDYWGQVTQVTVSS | low polyreactivity
17 | QVQLVETPGGLVQAGGSLRLSCAASGRIFAYNAMGWYRQEPGNERELVAAIDSGGDTNYADSVKGRFTISRDNAKNTVYLKMNSLKPEVTAVYYCWSRAAPPGWFYGTNDNYWGQGTQVTVSS | low polyreactivity
18 | QVQLVETVRGLVQAGGSLRITCAASGRIYAYYSMGWYRQPPGKERELVAAITRSGGSTYYADSVKGRFTNSRDIAKYTVYIQMISLKPEDNAVYYCAPSLNVPYATMNYWGQGTQVTVSA | high polyreactivity
19 | QVQLVEYGGGLVQAGGSLRLSCAASGRIFNYYAMGWYRQAPGKEREFVAAITRSGGRTYYADSVKGRFTISRDNAKNTVYLQMNILKPEDTAVYYCAAPYGTYAYDYSGQGTQVTVSS | high polyreactivity
20 | QVQLVEYGGGLVQAGGSLRLSCADSGRIFDVYAMGWYRQAPGKERELVARISDGGGSTYYADSVKGRFTISRDNAKNTVYLKMNSLKPEDTAVYYCAAGGDLRLDRRFAFVSRGDYWGQGTQVTVSS | low polyreactivity
21 | QVQLVKSGGGLVQAGGSLRLSCAASGSTFYNAMGWYRQAPGKERELVAAISIGGSTYYADSVKGRFTISRDNAKNTVYLQMNSLKPEDTAVYYCAAVWYTSRQKYDYWGHGTQVTVSS | low polyreactivity
22 | QVQLVKSGGGLVQAGGSLRLSCAASGSTFYNAMGWYRQAPGKERELVAAISIGGSTYYADSVKGRFTISRDNAKNTVYLQMNSLKPEDTAVYYCAAVWYTSRQKYDYWGQGTQVTVSS | low polyreactivity

Row | Sequence | polyreactivity (PSR sort gate)
23 | QVQLVLLGGGLVQAGGTLRVSCAPSGSIIYWKDRGWYRQAPGKERELDASITASGSSTYYADSVKGRFTISRDNGKNTVYLQMNSLLPEDTAVYYCNTSVFTYYDSAYDYWGQGTQVTVSS | low polyreactivity
24 | QVQLVQSGAGLVQAGGSLRLSCAPSGFIFRRYDMAWYRQAPGKERELVAAITSSGGTTYYADSVKGRFTNSRDNAKNTVYLQMNSLKPEDTAVYYCNAVRGVYARRSDYWGQGTQVTVSS | high polyreactivity
25 | QVQLVQSGGGIVQAGGSLRLSCAAYGITFGRNNMGWDRQAPGKERELVAALDSGGNTYADSVKGRFTISRDNAKQTVYVQMNSLKPEDTAVYDCAVDGGEFSSYGYWGQGTQVTVSS | low polyreactivity
26 | QVQLVQSGGGLFQAGGSLRLSCAASGRTFWSNAMGWYRQAPGKERELVADITFSGGRTYYADSVKGRFTISRDNAKTSVYLQMNRLKPEDTAVYYCSSSATPSGVGMDYWGQGTQVTVSS | low polyreactivity
27 | QVQLVQSGGGLVHAGGSLRLSCAASGRISFYYAMGWYRQAPGKERELVAAISRGGSTYYPDSVKGRFTISRDNAKNTVFLQMNSLKPEDTAVYYCAATYSGVDTPSGYDYWGQGTQVTVSS | low polyreactivity
28 | QVQLVQSGGGLVQAGGSLRLICAASGGTFSYNTMGWYRQAPGKVRELVAVITFSGGSTYYADCVKGRFTISRDNAKNTVYLQMNSLKQEDTAVYYCAADWLSKYDYWGQGTQVTVSS | low polyreactivity
29 | QVQLVQSGGGLVQAGGSLRLSCAASGFTLRRNAMGWYRQAPGKERELVAAISSSGSTYYADSVKGRFTISRDNAKNTVYLQMNSLKPEDTAVYYCAASATYKVRGGYWGQGTQVTVSS | high polyreactivity
30 | QVQLVQSGGGLVQAGGSLRLSCAASGRTFGRYAMGWYRQAPGKERELVAAINRGGSTKYADSVQGRFTISRDNAKNTVYLQMNSLKPEDTAVYYCAKDRHPALLYDYWGQGTEVTVSS | low polyreactivity
31 | QVQLVQSGGGLVQAGGSLRLSSAASRSPLGYYALGWYRQAPGKERELVAAISGRGTSPYYADSVKGRFTISRDNAKNTVYVQMNSLKPEDTAVSYCAAQLFRELYWGQGTQVTVSS | high polyreactivity
32 | QVQLVQSGGGLVQAGGSLSLSCAASGSIFNYNAMGWYRQAPGKERELVAAITSADGRTFYADSVKGRFTISRDNAKNTVYLQMNSLKPEDTAVYYCAAERTSRYSTYEYWGQGTQVTVSS | low polyreactivity
33 | QVQLVQSGGGLVQAGGSLSLSCAASGSIFPGYTRGWYRQAPGKERELVAAISRRGGSTYYADSVKGRFTISRDNAKNPGYLQMNSLKPEDTAVYYCAKVPDYRFEYWGQGTQVTVSS | high polyreactivity
34 | QVQLVQSVGGLVQAGGSLRLSCAATGRIFFSYAMGWYRQAPGKERELVAAISWDGGSTYYADSVKGRFTISRDNAKNTDYLQMTSLKPEDTAVSYCNADTHFPPSSSSYSPSLLDYWGQGTQVTVSS | low polyreactivity
35 | QVQLVSSGGRLVQSGGSLRLSCAASGRTFYPYAMGWYRQAPGKERELVAGIRNSGTSTYYADSVKGRFTISRDNAKNTVYLQMNSLKPEVTAVYYCNARGYRNRGYGYDSWGQGTQVTVSS | high polyreactivity
36 | QVQLVVSGGGLVQAGGSLRLICAASGFSFFFYALGWYSQAPGKDRELHATINWSGASTYYADSVMGRFTISRDNATNTVYLQMNSLKPEDTAVYYCAKDGHYPLVYLAFDYWGQGTQVTGSS | low polyreactivity
37 | QVQLVVSGGGLVQAGGSLRLSCAASGFTFGYYAMGWYRQAPGKERELVAAITASGARTYYADSVKGRFTISRDNAKNTVYLQMNSLKPEDTAVYYCAAYTNAYRERWPDYGYWGQGTQVTVSS | high polyreactivity
38 | QVQLVVSGGGLVQAGGSLRLSCAASGRTFYRYAMGWYRQAPGKEWELVAAISASGGITYYADSVKGRFTISRDNAKNTVYLQMNSLKPEDTAVYYCKAVWRKTEYDYWGQGTQVTVSS | high polyreactivity
39 | QVQLVVSGGGLVQAGGSLRLSCAASGSIFPYYTMGWYRQAPGKEWELVAAISGSGTSTYYADSVKGRFTISRDNAKNTVYLQMNSLKPEDTAVYYCAKRFRYGYVNYYYWGQGTQVTVSS | low polyreactivity
40 | QVQLVVSGGGLVQAGGSLRLSCATTGRIFHRSAMGWYRQAPGKERGLVAGISSSGGSTYADSVKGRFTISRDNAKNTVYLQMNSLKPEDTAVYYCAAKWRHSGGGMYYWGQGTQVTVSS | high polyreactivity
41 | QVQLVVSGGGLVQQGGSLRLSCAASGTFRYYTMGWYRQAPGKERELVAAISRSGGRSYYADSVTGRCTISRDNAKNTVDLPMNSLKPEDTAVYYCAARYKLYYPDYYYWGQGTQVTVSS | high polyreactivity
42 | QVQLVVSGGVLVQAGGSLRLSCAASGRTFASYTMGWYIQAAGKERELVAAISRGGNTYYADSVKGRFTISRDIAKNTVYLQMNSLKPDDTAVYYCAATAVKYDRRFYYWGQGTQVTVSS | high polyreactivity
43 | QVQLVVSGPGLFQAGGSLRISCAPSGFIFYNYAMGWYRQAPGKERELVAAISRSGGSTYYADSVKGRFTISRDNAKNTVYLQMNSLKPEDTAVYYCKVGYGRGSTIGGYDYWGQGTQVTVSS | high polyreactivity
